Assay results from publication PMC3659266 (Structure (London, England : 1993), 2013).

Molecular target: Human full-length eIF4AI (human, UniProt P60842 1-406)
Assay: ITC

Sequence of Human full-length eIF4AI (P60842 whole entry): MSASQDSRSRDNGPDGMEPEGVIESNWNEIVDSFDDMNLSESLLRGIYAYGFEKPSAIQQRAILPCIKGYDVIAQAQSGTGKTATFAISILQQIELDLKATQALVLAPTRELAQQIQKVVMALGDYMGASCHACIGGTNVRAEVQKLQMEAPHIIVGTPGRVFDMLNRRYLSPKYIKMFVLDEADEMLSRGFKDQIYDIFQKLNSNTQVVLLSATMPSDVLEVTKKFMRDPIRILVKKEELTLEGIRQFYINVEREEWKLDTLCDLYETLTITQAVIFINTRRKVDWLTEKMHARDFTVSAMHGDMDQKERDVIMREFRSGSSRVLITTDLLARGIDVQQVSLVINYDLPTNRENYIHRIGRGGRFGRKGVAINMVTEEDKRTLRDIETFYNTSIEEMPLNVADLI

Kd: 136 nM
B1: Middle domain of human eIF4GI (MIF4G, residues 732-1003) (domain or fragment, UniProt Q04637 732-1003, looked up)
chain: KAWKPSSKRTAADKDRGEEDADGSKTQDLFRRVRSILNKLTPQMFQQLMKQVTQLAIDTEERLKGVIDLIFEKAISEPNFSVAYANMCRCLMALKVPTTEKPTVTVNFRKLLLNRCQKEFEKDKDDDEVFEKKQKEMDEAATAEERGRLKEELEEARDIARRRSLGNIKFIGELFKLKMLTEAIMHDCVVKLLKNHDEESLECLCRLLTTIGKDLDFEKAKPRMDQYFNQMEKIIKEKKTSSRIRFMLQDVLDLRGSNWVPRRGDQGPKTID
